Measurements taken from patent US20050265970A1 (UNIVERSITY OF CHICAGO, published 2005).
Ends that are not written are not given here.

B3: GST-MKK7 (GST-JNKK2; human JNKK2 in pGEX-2T) (enzyme)
chain: MAASSLEQKLSRLEAKLKQENREARRRIDLNLDISPQRPRPTLQLPLANDGGSRSPSSESSPQHPTPPARPRHMLGLPSTLFTPRSMESIEIDHKLQEIMKQTGYLTIGGQRYQAEINDLENLGEMGSGTCGPVWKMRFRKTGHVIAVKQMRRSGNKEENKRILMDLDVVLKSHDCPYIVQCFGTFITNTDVFIAMELMGTCAEKLKKRMQGPIPERILGKMTVAIVKALYYLKEKHGVIHRDVKPSNILLDERGQIKLCDFGISGRLVDSKAKTRSAGCAAYMAPERIDPPDPTKPDYDIRADVWSLGISLVELATGQFPYKNCKTDFEVLTKVLQEEPPLLPGHMGFSGDFQSFVKDCLTKDHRKRPKYNKLLEHSFIKRYETLEVDVASWFKDVMAKT
notes: On glutathione beads in pull-downs; also called recombinant JNKK2; not shown: glutathione S-transferase encoded by the pGEX-2T vector

Columns and labels:
[1] = target: T1, endogenous MEKK1 of 3DO cells (UniProt P53349 2-1493, limits assumed); assay: co-immunoprecipitation of endogenous proteins from 3DO cells
T1 sequence (looked up): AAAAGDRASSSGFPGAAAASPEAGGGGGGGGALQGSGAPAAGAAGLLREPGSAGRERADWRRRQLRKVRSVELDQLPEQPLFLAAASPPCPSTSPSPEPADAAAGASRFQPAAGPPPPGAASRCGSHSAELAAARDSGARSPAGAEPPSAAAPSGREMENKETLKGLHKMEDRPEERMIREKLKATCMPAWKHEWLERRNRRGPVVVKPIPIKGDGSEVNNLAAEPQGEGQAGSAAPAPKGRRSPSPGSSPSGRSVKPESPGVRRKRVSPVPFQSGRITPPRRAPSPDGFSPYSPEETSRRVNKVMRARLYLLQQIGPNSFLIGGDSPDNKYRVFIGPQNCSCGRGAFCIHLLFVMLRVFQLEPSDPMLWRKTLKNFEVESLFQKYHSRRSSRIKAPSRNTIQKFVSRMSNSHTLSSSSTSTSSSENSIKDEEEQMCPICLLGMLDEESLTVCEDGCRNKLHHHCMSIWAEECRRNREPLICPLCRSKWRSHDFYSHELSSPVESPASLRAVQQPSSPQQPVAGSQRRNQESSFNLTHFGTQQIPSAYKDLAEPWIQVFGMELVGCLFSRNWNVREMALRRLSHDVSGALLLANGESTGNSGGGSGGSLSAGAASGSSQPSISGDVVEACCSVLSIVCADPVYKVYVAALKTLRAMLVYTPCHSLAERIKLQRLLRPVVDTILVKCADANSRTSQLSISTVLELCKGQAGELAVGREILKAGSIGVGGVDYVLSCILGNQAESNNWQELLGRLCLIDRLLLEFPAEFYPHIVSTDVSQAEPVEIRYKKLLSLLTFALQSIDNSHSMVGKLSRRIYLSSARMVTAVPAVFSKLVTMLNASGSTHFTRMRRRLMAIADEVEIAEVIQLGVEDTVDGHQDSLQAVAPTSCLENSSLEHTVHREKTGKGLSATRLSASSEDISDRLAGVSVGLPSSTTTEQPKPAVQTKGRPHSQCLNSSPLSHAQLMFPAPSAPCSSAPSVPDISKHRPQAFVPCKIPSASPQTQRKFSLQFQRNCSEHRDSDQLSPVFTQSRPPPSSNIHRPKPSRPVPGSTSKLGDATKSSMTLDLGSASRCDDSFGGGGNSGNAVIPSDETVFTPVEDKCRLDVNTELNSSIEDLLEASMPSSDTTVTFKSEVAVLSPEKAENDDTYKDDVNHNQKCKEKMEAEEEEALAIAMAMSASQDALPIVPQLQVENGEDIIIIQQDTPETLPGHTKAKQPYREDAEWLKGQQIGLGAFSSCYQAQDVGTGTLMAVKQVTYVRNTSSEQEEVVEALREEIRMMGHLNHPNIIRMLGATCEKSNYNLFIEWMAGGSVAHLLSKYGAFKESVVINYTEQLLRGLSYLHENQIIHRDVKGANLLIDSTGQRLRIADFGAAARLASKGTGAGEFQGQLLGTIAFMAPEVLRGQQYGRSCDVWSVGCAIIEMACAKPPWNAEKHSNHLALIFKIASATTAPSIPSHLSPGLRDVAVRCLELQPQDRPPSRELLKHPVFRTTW

[2] = target: T2, GST (glutathione-S-transferase, control) (UniProt P08515 1-218 = GST); assay: GST pull-down of 35S-labeled in vitro translated protein
T2 construct: Control beads in GST pull-downs

[3] = target: T3, Gadd45β (1-68) (EcoRV digestion), in vitro translated as GFP fusion (murine, UniProt P22339 1-68, 35S-methionine label); assay: GST pull-down with GST-JNKK2 beads and 35S-labeled in vitro translated Gadd45β truncations
T3 construct: range 1-68; not shown: GFP of pEGFP-N1 (Clontech) with a short oligonucleotide-encoded linker
T3 sequence (looked up): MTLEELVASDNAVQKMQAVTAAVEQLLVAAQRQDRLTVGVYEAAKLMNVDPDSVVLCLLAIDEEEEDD

[4] = target: T4, GST-Gadd45β (full-length murine Gadd45β directly fused to GST) (murine, UniProt P22339 1-160); assay: GST pull-down of 35S-labeled in vitro translated MKK7 peptides
T4 construct: range 1-160; Made in E. coli BL21, on glutathione-sepharose beads in pull-downs; purified protein in kinase assays; not shown: glutathione S-transferase encoded by the pGEX-3X vector
T4 sequence (looked up): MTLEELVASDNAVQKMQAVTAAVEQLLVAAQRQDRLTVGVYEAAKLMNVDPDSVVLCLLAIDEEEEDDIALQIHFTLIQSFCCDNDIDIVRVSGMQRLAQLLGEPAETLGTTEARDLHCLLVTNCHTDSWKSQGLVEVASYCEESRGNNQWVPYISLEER

[5] = target: B3; assay: GST pull-down with GST-JNKK2 beads and 35S-labeled in vitro translated Gadd45β truncations

T2 sequence (P08515 whole entry): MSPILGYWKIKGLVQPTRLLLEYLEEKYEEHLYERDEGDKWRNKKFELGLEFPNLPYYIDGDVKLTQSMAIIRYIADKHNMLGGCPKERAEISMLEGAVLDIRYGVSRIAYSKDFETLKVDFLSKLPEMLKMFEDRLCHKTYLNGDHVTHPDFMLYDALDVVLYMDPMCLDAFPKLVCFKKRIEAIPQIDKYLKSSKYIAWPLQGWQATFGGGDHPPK

B1: Gadd45β in cells (untagged full-length: endogenous in 3DO cells and MEFs, or stably expressed in 3DO-IκBαM-Gadd45β clones) (other, UniProt P22339 1-160, looked up)
chain: MTLEELVASDNAVQKMQAVTAAVEQLLVAAQRQDRLTVGVYEAAKLMNVDPDSVVLCLLAIDEEEEDDIALQIHFTLIQSFCCDNDIDIVRVSGMQRLAQLLGEPAETLGTTEARDLHCLLVTNCHTDSWKSQGLVEVASYCEESRGNNQWVPYISLEER
notes: also called endogenous Gadd45β
Does B1 bind [1]?
Result: no binding

B2: FL-JNKK2, JNKK2 (1-401; FL), 35S-labeled in vitro translated full-length human JNKK2/MKK7 (enzyme)
chain: MAASSLEQKLSRLEAKLKQENREARRRIDLNLDISPQRPRPTLQLPLANDGGSRSPSSESSPQHPTPPARPRHMLGLPSTLFTPRSMESIEIDHKLQEIMKQTGYLTIGGQRYQAEINDLENLGEMGSGTCGPVWKMRFRKTGHVIAVKQMRRSGNKEENKRILMDLDVVLKSHDCPYIVQCFGTFITNTDVFIAMELMGTCAEKLKKRMQGPIPERILGKMTVAIVKALYYLKEKHGVIHRDVKPSNILLDERGQIKLCDFGISGRLVDSKAKTRSAGCAAYMAPERIDPPDPTKPDYDIRADVWSLGISLVELATGQFPYKNCKTDFEVLTKVLQEEPPLLPGHMGFSGDFQSFVKDCLTKDHRKRPKYNKLLEHSFIKRYETLEVDVASWFKDVMAKT
modifications: 35S-methionine label
notes: Reticulocyte lysate translation from pBS-JNKK2; also called full-length MKK7; SacII (FL)
Does B2 bind [2]?
Result: no binding

Does B3 bind [3]?
Result: no binding

B4: MKK7 peptide 2 (aa 142-166 of MKK7/JNKK2), in vitro translated, fused to eGFP (peptide)
chain: TGHVIAVKQMRRSGNKEENKRILMD
modifications: also: 35S-methionine label, place not given here, eGFP fusion, side not given here
notes: not shown: enhanced green fluorescent protein (eGFP, Clontech) fusion partner
Does B4 bind [4]?
Result: no binding

B5: Gadd45β (114-160), in vitro translated as GFP fusion (other, murine, UniProt P22339 114-160, looked up)
chain: ARDLHCLLVTNCHTDSWKSQGLVEVASYCEESRGNNQWVPYISLEER
modifications: cysteine pairing not given here; also: GFP fusion, letters not given here, 35S-methionine label
notes: The two places differ by one residue at the N-terminal limit; also called Gadd45β(113-160) in the methods; not shown: GFP of pEGFP-N1 (Clontech) with a short oligonucleotide-encoded linker
Does B5 bind [5]?
Result: no binding
